We go through eleven molecules from publication PMC4909229, “Characterization of Staphylococcus aureus Primosomal DnaD Protein: Highly Conserved C-Terminal Region Is Crucial for ssDNA and PriA Helicase Binding but Not for DnaA Protein-Binding and Self-Tetrameri”.

Several values for one entry are separate records, joined by “and”; a condition that tells them apart may be missing. Identical values can stand only once.

For data set [1], the target named is Staphylococcus aureus PriA helicase (SaPriA) (Staphylococcus aureus subsp. aureus ED98). Kind of data set: SPR; SaPriA or SaDnaA immobilised on CM5 chips, Biacore T200, 293 K, 40 mM Tris, 200 mM NaCl, 0.05% Tween-20, pH 8.0; SaDnaD solutions 7.6-250 nM as analyte; 1:1 (Langmuir) model.
The target of another data set is T1, SaDnaD1-200 (Staphylococcus aureus subsp. aureus ED98, UniProt Q9EUT0 1-200, del201-228).
T1 sequence: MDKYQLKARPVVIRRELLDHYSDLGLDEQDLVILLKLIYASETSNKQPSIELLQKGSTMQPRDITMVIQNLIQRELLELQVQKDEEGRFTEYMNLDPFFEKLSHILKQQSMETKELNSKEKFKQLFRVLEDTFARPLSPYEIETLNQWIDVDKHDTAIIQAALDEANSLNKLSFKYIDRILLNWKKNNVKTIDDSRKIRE
Kind of data set: SEC; Superdex 200 HR 10/30, Buffer B (20 mM HEPES, 100 mM NaCl, pH 7.0), purified protein 2 mg/mL (methods; 4 mg/mL in the results for SaDnaD), calibrated with standard proteins; oligomer size from the estimated native mass.

Data set [2] concerns the target Staphylococcus aureus DnaA (SaDnaA) (Staphylococcus aureus subsp. aureus ED98). Kind of data set: SPR; SaPriA or SaDnaA immobilised on CM5 chips, Biacore T200, 293 K, 40 mM Tris, 200 mM NaCl, 0.05% Tween-20, pH 8.0; SaDnaD solutions 7.6-250 nM as analyte; 1:1 (Langmuir) model.
Data set [3] addresses Staphylococcus aureus PriA helicase (SaPriA) (Staphylococcus aureus subsp. aureus ED98).
For data set [4] the target is unchanged. This is another data set of the same source.
The target is the same in data set [5]. This is another data set of the same source.
For the next data set, the target named is T2, SaDnaD1-195 (Staphylococcus aureus subsp. aureus ED98, UniProt Q9EUT0 1-195, del196-228).
T2 sequence: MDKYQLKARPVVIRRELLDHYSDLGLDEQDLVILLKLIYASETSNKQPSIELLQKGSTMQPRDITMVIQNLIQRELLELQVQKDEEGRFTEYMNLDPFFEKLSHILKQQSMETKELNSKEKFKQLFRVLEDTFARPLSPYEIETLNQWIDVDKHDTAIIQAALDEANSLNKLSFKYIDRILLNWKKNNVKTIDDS
The data set can be described thus: SEC; Superdex 200 HR 10/30, Buffer B (20 mM HEPES, 100 mM NaCl, pH 7.0), purified protein 2 mg/mL (methods; 4 mg/mL in the results for SaDnaD), calibrated with standard proteins; oligomer size from the estimated native mass.

Data set [6] deals with Staphylococcus aureus DnaD (SaDnaD) (Staphylococcus aureus subsp. aureus ED98) (UniProt Q9EUT0). The data set is described as above.
The next data set has as its target T3, SaDnaD1-204 (Staphylococcus aureus subsp. aureus ED98, UniProt Q9EUT0 1-204, del205-228).
T3 sequence: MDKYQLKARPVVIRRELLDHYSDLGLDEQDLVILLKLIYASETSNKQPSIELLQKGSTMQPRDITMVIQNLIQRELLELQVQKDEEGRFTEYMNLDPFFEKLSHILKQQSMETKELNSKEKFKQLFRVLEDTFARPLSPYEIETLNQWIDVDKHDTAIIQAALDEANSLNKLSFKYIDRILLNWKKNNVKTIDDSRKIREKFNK
The description is as above.

Data set [7] addresses T4, SaDnaD (Staphylococcus aureus subsp. aureus ED98, UniProt Q9EUT0 1-228).
T4 sequence: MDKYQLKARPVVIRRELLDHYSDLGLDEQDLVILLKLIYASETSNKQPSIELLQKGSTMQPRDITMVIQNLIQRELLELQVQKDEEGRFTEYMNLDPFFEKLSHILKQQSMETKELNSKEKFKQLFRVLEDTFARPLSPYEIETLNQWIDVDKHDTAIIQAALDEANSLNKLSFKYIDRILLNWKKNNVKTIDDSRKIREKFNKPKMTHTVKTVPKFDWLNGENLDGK
The data set can be described thus: EMSA; EMSA: 20 mM Tris-HCl pH 8.0, 100 mM NaCl, 25 C, 30 min, 1.7 nM DNA, gel at 4 C in TBE; fluorescence: 20 mM Tris-HCl pH 8.0, 200 or 500 mM NaCl, 0.1 uM tetramer. As to conditions: protein: recombinant; tags: C-terminal His tag (pET21e); chain copies: 4; label: 5'-32P. In general terms: In EMSA bound probe runs differently from free probe, usually more slowly.

For data set [8], the target named is T4, SaDnaD. Kind of data set: EMSA; two complexes summed; EMSA: 20 mM Tris-HCl pH 8.0, 100 mM NaCl, 25 C, 30 min, 1.7 nM DNA, gel at 4 C in TBE; fluorescence: 20 mM Tris-HCl pH 8.0, 200 or 500 mM NaCl, 0.1 uM tetramer. As to conditions: protein: recombinant, tags: C-terminal His tag (pET21e), chain copies: 4.

The term Kd denotes the free concentration of one partner at which half of the binding sites on the other are occupied at equilibrium, for simple one-to-one binding. One may read the stoichiometry N as a count of units in the complex or per binding partner. In [1], “SaDnaD1-200 (from UniProt Q9EUT0 1-200) (domain or fragment)” showed a Kd of 26 nM. The stoichiometry N with SaDnaD1-200 is 4.
In the case of “SaDnaD1-195 (from UniProt Q9EUT0 1-195) (domain or fragment)”, in data set [2], the Kd is 150 nM. In data set [3], this molecule had a SaPriA ATPase activity with His-tagged SaDnaD1-195 (10 μM), stimulation over SaPriA alone of 2 fold. The molecule further yielded a SaPriA ATPase activity with tag-free SaDnaD1-195 (10 μM), stimulation over SaPriA alone in [4] of 2 fold. For the same molecule, the Fold of Vmax/Km of SaPriA ATPase with tag-free SaDnaD1-195 (10 μM) against PriA alone in data set [5] was found to be 1.2 fold. For the same molecule, the stoichiometry N with SaDnaD1-195 is 4.
In turn, “tag-free SaDnaDY176A mutant protein (from UniProt Q9EUT0 1-228) (natural protein)” had a Fold of Vmax/Km of SaPriA ATPase with tag-free SaDnaDY176A (10 μM) against PriA alone in data set [5] of 5.1 fold.
Regarding “Staphylococcus aureus DnaD (SaDnaD) (from UniProt Q9EUT0 1-228) (natural protein)”, the Kd in [1] came out at 2 nM; in data set [2], 17 nM. In data set [3], this molecule gave a SaPriA ATPase activity with His-tagged SaDnaD (10 μM), stimulation over SaPriA alone of 12 fold. Besides, the SaPriA ATPase activity with tag-free SaDnaD (10 μM), stimulation over SaPriA alone in data set [4] was 11 fold and 12 fold. Further, in [5], the Fold of Vmax/Km of SaPriA ATPase with tag-free SaDnaD (10 μM) against PriA alone was found to be 5.3 fold. The stoichiometry N in data set [6] was 4.
For “SaDnaD1-204 (from UniProt Q9EUT0 1-204) (domain or fragment)”, the Kd in data set [1] is 11 nM. The stoichiometry N in the data set with SaDnaD1-204 is 4.
Turning to TTTTTTTTTTTTTTTTTTTTTTTTTTTTTTTTTTT (ssDNA) [dT35], the “apparent K (half saturation)” value with SaDnaD [7] came to 2200 ± 300 nM.

B1: dT55 (ssDNA)
DNA: TTTTTTTTTTTTTTTTTTTTTTTTTTTTTTTTTTTTTTTTTTTTTTTTTTTTTTT
Turning to B1, the “apparent K (half saturation)” value with SaDnaD [7] is 1400 ± 100 nM.
The same measure, in the same setting: to TTTTTTTTTTTTTTTTTTTTTTTTT (ssDNA) [dT25] belongs 4700 ± 800 nM.

B2: dT65 (ssDNA)
DNA: TTTTTTTTTTTTTTTTTTTTTTTTTTTTTTTTTTTTTTTTTTTTTTTTTTTTTTTTTTTTTTTTT
In the case of B2, in the data set with SaDnaD [8] (label: 5'-32P (EMSA), unlabeled in fluorescence titration), the “apparent K (half saturation)” value came to 500 ± 100 nM.

B3: dT60 (ssDNA)
DNA: TTTTTTTTTTTTTTTTTTTTTTTTTTTTTTTTTTTTTTTTTTTTTTTTTTTTTTTTTTTT
Turning to B3, in the data set with SaDnaD [8] (label: 5'-32P), the “apparent K (half saturation)” value came out at 1500 ± 100 nM.
As to TTTTTTTTTTTTTTTTTTTTTTTTTTTTTTTTTTTTTTTTTTTTT (ssDNA) [dT45], the “apparent K (half saturation)” value in the data set with SaDnaD [7] was determined as 2000 ± 200 nM.
